Source: patent publication US20170056327A1 (The Methodist Hospital, priority 2015, published 2017)

Legend:
[1] = system: BRAF, phosphor-BRAF, MEK, phosphor-MEK, ERK, phosphor-ERK in A375 melanoma cells; experiment: Western blot of BRAF pathway proteins after treatment; assay type: cell-based, human; details: delivered by composite with single cargo; siRNA 100 nM, docetaxel 100 nM
Description: The size and zeta potential of the particles were measured by the Zetasizer Nano (Malvern Instruments). The SEM characterization was shown on an ultra-high resolution scanning electron microscope (SEM 230, NovaNano, Hillsboro, Oreg., USA). Western blots were performed using standard protocols on 4%-15% Bio-Rad Mini-Protean TGX Precast Gels (Bio-Rad, Hercules, Calif., USA).

[2] = system: T1, MMP2 substrate peptide AGFSGPLGMWSAGSFG (SEQ ID NO:1)
T1 sequence: AGFSGPLGMWSAGSFG

[3] = molecular target: MMP2 substrate peptide … (SEQ ID NO:1); experiment: cell-based or functional assay

Sequence of matrix metalloproteinase-2 (MMP-2) enzyme (P08253 110-660): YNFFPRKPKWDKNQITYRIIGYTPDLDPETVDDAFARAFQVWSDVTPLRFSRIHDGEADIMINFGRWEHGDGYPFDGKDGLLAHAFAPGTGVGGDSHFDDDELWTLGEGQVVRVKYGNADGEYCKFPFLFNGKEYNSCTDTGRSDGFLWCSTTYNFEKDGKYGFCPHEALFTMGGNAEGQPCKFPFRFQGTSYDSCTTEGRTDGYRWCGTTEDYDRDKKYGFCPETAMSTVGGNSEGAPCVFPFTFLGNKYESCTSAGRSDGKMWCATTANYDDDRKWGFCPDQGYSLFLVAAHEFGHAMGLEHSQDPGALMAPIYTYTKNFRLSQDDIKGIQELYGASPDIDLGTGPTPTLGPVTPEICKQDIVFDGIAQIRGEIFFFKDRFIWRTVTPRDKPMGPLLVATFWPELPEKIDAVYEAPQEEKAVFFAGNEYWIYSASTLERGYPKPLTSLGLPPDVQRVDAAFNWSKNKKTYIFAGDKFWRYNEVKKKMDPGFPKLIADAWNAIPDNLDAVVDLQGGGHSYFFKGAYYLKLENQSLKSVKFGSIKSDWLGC

Row | cellular uptake in A375 cells of stimuli-release particles (MSV/Peptide NPs) relative to non-stimuli-release particles (MSV/NPs), medium with 2 ug/mL MMP2, 6-hrs' incubation [3] [fold] | cellular uptake in A375 cells of stimuli-release particles (MSV/Peptide NPs) relative to non-stimuli-release particles (MSV/NPs), medium with 2 ug/mL MMP2, 24-hrs' incubation [3] [fold] | Compound | effect on protein expression of BRAF pathway [1] | coumarin 6 released into buffer within 6 hrs from MSV/Peptide NPs with MMP2 enzyme (2 ug/mL); without MMP2 cleavage only about 40% was released [2]
1 |  |  | 5′-GCUACAGAGAAAUCUCGAU-3′ (listed as RNA, chemistry not given here) [BRAF siRNA] | knockdown BRAF expression and its related phosphor-proteins downstream | 
2 |  |  | CC(=O)O[C@@]12CO[C@@H]1C[C@H](O)[C@@]1(C)C(=O)[C@H](O)C3=C(C)[C@@H](OC(=O)[C@H](O)[C@@H](NC(=O)OC(C)(C)C)c4ccccc4)C[C@@](O)([C@@H](OC(=O)c4ccccc4)[C@H]21)C3(C)C [docetaxel] | decreased the expression of BRAF, phosphor-BRAF and phosphor-MEK, but increased the expression of phosphor-ERK | 
3 | 1.2 | 1.5 | matrix metalloproteinase-2 (MMP-2) enzyme |  | about 80% of the coumarin 6 was released
